These results are taken from US20140072986, “AMYLOID PROTEIN OLIGOMER-BINDING APTAMER” (NATIONAL UNIVERSITY CORPORATION TOKYO UNIVERSITY OF …, published 2014).

As a reminder, the Kd is the equilibrium constant for the complex coming apart. Read a low Kd as tighter binding.

Series [1] concerns the target T1, alpha-synuclein oligomer (UniProt P37840 P37840:1-140). The experiment in a line: aptamer blotting; did not retain binding of T-SO504.
Series [2] concerns the target T2, amyloid beta 1-40 oligomer (UniProt P05067 P05067:672-711). Description: aptamer blotting, 500 nM. Conditions: tags: Peptide Institute peptide; oligomerised from HFIP/water; chain copies: oligomer (stated); label: 5'-FITC; G4. The protocol:
(§1) α-synuclein monomer, oligomer, and fibril (1 μg) was immobilized on a nitrocellulose membrane and dried. Then, the membrane was incubated with 4% skim milk prepared using TBS-T (25 mM Tris-HCl, pH 7.4, 0.15 M NaCl, 0.005 M KCl, 0.05% Tween-20) at room temperature for 1 hour for blocking. After that, the membrane was washed with a sufficient amount of TBS-T (2 min×twice and 10 min×one time). The obtained plural oligonucleotides modified with FITC at the 5′ end (f.c. 100 nM) were folded, and the DNA and the membrane were incubated at room temperature for 1 hour. Next, the membrane was washed with a sufficient amount of TBS-T (2 min×twice, 10 min×one time, and 5 min×twice). After that, an HRP-modified anti-FITC antibody diluted to 1000 times with TBS-T and the membrane were incubated at room temperature for 1 hour and the membrane was washed with a sufficient amount of TBS-T (2 min×twice, 10 min×one time, and 5 min×twice). ECL Plus Western blotting detection reagents (GE Healthcare Ltd.) were added to the membrane, and HRP chemiluminescence was detected by TYPHOON 8600 to observe the binding of the DNA to the protein.
Spot intensities of portions with the immobilized α-Syn oligomer were analyzed to create a calibration curve, whereby an oligomer concentration included in the Aβ₁₋₄₀ oligomer sample was roughly estimated. After that, the Aβ₁₋₄₀ oligomer was immobilized on a nitrocellulose membrane in such a manner that the A11 has the same level of spot intensity, and aptamer blotting was performed using 500 nM of each aptamer. As a control, the A11 was used to perform the same experiment.

Series [3] concerns the target T2, amyloid beta 1-40 oligomer. The experiment in a line: ELONA; oligomer immobilised on plate, room temp. Conditions: tags: Peptide Institute peptide, oligomerised from HFIP/water, chain copies: oligomer (stated), label: 5'-FITC. The protocol:
(§2) 100 μL of 100 μM of an Aβ oligomer solution or PBS buffer was added to each well of MaxiSorp (registered trademark) plate (Nunc Co., Ltd) and incubated at 37° C. for 1.5 hours to immobilize the Aβ oligomer on the wells. Blocking of each well was performed with a 2% (w/v) BSA solution (TBS-T: 25 mM Tris-HCl, pH 7.4, 0.15M NaCl, 0.005M KCl, 0.05% Tween-20) to produce an Aβ oligomer-immobilized plate.
(§3) To each well of the Aβ oligomer-immobilized plate was added the each FITC-labeled aptamer prepared in a concentration of 1 nM, 2.5 nM, or 10 nM, and incubation at room temperature for 60 minutes was carried out. After washing the wells, an HRP-modified anti-FITC antibody (Cosmo BiO Co., Ltd) was added to the wells and incubation was performed at room temperature. After washing the wells, an HRP-luminescent substrate was added to detect the binding of each aptamer to the oligomer by chemiluminescence. FIG. 5 illustrates the results.
Further, using the 10T dimer and the original aptamer T-SO530 in a concentration of 1 nM, 2.5 nM, 10 nM, 20 nM, or 60 nM, an experiment for binding the aptamers to the Aβ oligomer was performed in the same manner as above. Based on the obtained binding signals, curve fitting was performed using GraphPad Prism (MDF Co., Ltd.) to calculate a binding dissociation constant (Kd).

For series [4], the target named is T1, alpha-synuclein oligomer. Description: aptamer blotting.
Series [5] addresses T1, alpha-synuclein oligomer. The experiment in a line: aptamer blotting; binding improved over T-SO504.
In series [6] the target is PQQ-dependent glucose dehydrogenase (PQQGDH) (UniProt P13650 P13650:25-478). Description: aptamer blotting, 5 pmol protein. Conditions: label: 5'-FITC; G4. Here is the method:
as §1
(§4) On the same nitrocellulose membrane, 5 pmol of each of glucose dehydrogenase (PQQGDH) dependent on the coenzyme PQQ, a C-reactive protein (CRP) (Polyscience Corp.), luciferase, and an IgG antibody (Sigma Aldrich Company), and 0.5 μg of α-synuclein oligomer were immobilized. Using the membrane, specificity evaluation was performed by an aptamer blotting method.

For another series, the target named is T3, C-reactive protein (CRP) (UniProt P02741 P02741:19-224).
T3 sequence: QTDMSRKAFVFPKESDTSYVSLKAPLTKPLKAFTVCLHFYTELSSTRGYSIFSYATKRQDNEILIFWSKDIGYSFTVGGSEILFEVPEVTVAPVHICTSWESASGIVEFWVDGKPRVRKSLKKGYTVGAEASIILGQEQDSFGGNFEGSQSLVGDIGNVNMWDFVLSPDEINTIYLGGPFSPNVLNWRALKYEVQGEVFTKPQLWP
The experiment in a line: aptamer blotting, 5 pmol protein. Conditions: tags: Polyscience Corp; chain copies: 5; label: 5'-FITC; G4. Here is the method: as §1, §4

The target of series [7] is T2, amyloid beta 1-40 oligomer. The experiment in a line: ELONA; signal from 1 nM versus 10 nM for T-SO530; also strong spot in blotting FIG. 6. Conditions: tags: Peptide Institute peptide; oligomerised from HFIP/water; chain copies: oligomer (stated); label: 5'-FITC. Here is the method:
as §2, §3

T2 sequence (P05067 672-711, one chain of several): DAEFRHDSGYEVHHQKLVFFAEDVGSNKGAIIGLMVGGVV
PQQ-dependent glucose dehydrogenase (PQQGDH), sequence (P13650 25-478, one chain of several): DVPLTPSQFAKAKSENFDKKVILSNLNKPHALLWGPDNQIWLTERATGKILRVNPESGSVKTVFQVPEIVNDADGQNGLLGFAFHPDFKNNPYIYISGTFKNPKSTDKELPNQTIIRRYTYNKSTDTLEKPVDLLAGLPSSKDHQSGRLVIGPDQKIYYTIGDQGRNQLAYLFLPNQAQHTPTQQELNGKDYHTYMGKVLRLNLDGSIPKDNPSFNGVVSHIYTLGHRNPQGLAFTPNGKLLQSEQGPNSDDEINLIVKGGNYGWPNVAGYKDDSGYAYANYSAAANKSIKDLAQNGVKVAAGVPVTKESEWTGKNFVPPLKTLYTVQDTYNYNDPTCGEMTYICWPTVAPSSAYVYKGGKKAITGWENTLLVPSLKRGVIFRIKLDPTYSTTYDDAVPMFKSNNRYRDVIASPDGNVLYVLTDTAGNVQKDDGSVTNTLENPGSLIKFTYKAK

With AAAAAGGGTGGGCAAAGGGAA (ssDNA) [504M1], the binding result in the series with alpha-synuclein oligomer [1] is “no binding”.
Regarding CGAGGGGCGTCTGGGAGTGGTCGG (structured_DNA) [T-SO554], the binding result in series [2] was “binds”.
Molecule TTTTTGGTGCGGCGGGACTAGTGGGTGTG (structured_DNA) [tT-SO530] gave a Kd in series [3] (G4) of 9.03 nM.

B1: 10T dimer (structured_DNA)
DNA: TTTTTGGTGCGGCGGGACTAGTGGGTGTGTTTTTTTTTTGGTGCGGCGGGACTAGTGGGTGTG
As for B1, binding in series [3] was characterised by a dissociation constant (Kd) of 1.44 nM. This counts as single-digit nanomolar.
Turning to TTTTTCAGGGGTGGGCAAAGGGCGGTGGTG (structured_DNA) [tT-SO504], the binding result in the series with alpha-synuclein oligomer [4] is reported as “binds”.
Consider GCCTGTGGTGTTGGGGCGGGTGCG (structured_DNA) [T-SO508], for which, in series [2], the binding result is reported as “binds”.
Same read-out and setting: under CAGGGGTGGGCAAAGGGCGGTGGTG (structured_DNA) [T-SO504] stands “binds”.

B2: 504W (structured_DNA)
DNA: AAAAACAGGGGTGGGCAAAGGGCGGTGGTGTTTTTCAGGGGTGGGCAAAGGGCGGTGGTG
Regarding B2, in the series with alpha-synuclein oligomer [5], the binding result is on record as “binds”.
For the molecule GCGGTAGGGTGTGAGCGGAAGGGG (structured_DNA) [T-SO602], in series [2], the binding result is reported as “binds”.
On to AAAAAGGGCAAAGGGAA (ssDNA) [504M2], for which, in the series with alpha-synuclein oligomer [1], the binding result was “no binding”.
With GCGTGTGGGGCTTGGGCAGCTGGG (structured_DNA) [T-SO552], in series [2], the binding result is on record as “binds”.
For the molecule GGTGGCTGGAGGGGGCGCGAACG (structured_DNA) [T-SO517], the binding result in series [2] was “binds”; in series [6], “no binding”; with C-reactive protein (CRP) it was “no binding”.

B3: 5T dimer (structured_DNA)
DNA: TTTTTGGTGCGGCGGGACTAGTGGGTGTGTTTTTGGTGCGGCGGGACTAGTGGGTGTG
Take B3: the binding result in series [7] was “binds”.
As to GGTGCGGCGGGACTAGTGGGTGTG (structured_DNA) [T-SO530], in series [2], the binding result is “binds”.
Consider GGGTCGGCTGTCCGTGGGTGGGGA (structured_DNA) [T-SO606], for which the binding result in series [2] is reported as “binds”; in series [6] it was “no binding”; with C-reactive protein (CRP), “no binding”.
